Data on 7 molecules can be found in patent US20250221936A1, “ENGINEERED HEMICHANNELS, ENGINEERED VESICLES, AND USES THEREOF” (VIRGINIA TECH INTELLECTUAL PROPERTIES, INC., priority 2018, published 2025).

No end group written: not given here.

Data set [1] relates to EVs isolated from cow milk. Description: Milk EV loading with Calcein AM. To be noted: 0.1 and 1 μM. The protocol:
EVs were isolated from cow milk and loaded with neutral non-fluorescent Calcein AM (10 μM) for 48 hours at 37 C in PBS buffer at pH 8.5 (FIG. 30A). […] Purity and integrity of exosomes isolated from cow milk was confirmed by negative stain electron microscopy (EM). FIG. 30B) illustrates an exosome isolated from cow milk. Scale bar=50 nm. The methods described herein of isolation from milk were adapted to obtain high yields of EV, taking particular care not to cause rapid and/or large-scale precipitation of milk casein, as well as in centrifugation steps, which can reduce EV yields from milk.
An exemplar of these methods is shown in FIGS. 31A-31C wherein Milk EVs incubated with Calcein AM show time-(FIG. 31A), pH-(FIG. 31B) and concentration-dependent effects on uptake of Calcein by EVs. Important to this method in the case of Calcein AM, are the multiple chemical groups linked by ester bonds to the molecule, which shield it's negatively charged moieties. Cleavage of these groups by ester bond breaking activities within EVs results in Calcein becoming negatively charged, fluorescent and retained within the EV—as exemplified by the green spots seen in most figure panels in FIG. 31. In FIG. 31A EVs are illustrated that were incubated for 1, 2 or 3 hours in PBS at 37 C at pH 7.4 with Calcein AM (5 μM). […]

The next data set concerns the target Connexin 43 hemichannels (Homo sapiens, UniProt P17302). It counts as cell-based. To be noted: 0.1 mM Ca^2+; Gap19 (200 μM). The protocol: Media containing 0.1 mM Ca^2+ was used to open Cx43 hemichannels in the presence of 50 μM alphaCT11 peptide and/or the hemichannel blockers; Gap19 (200 μM) and carbenoxolone ([…]).
Data set [2] has as its system HC (hemichannel) activity. Description: Hemichannel block in perfused hearts. On the set-up: species or system mouse. To be noted: 2 micromolar for 20 minutes before biotin-alphaCT11 infusion. The protocol: Briefly, isolated mouse hearts were perfused with 2 micromolar carbenoxolone for 20 minutes to block HC (hemichannel) activity prior to a 20 minute infusion with biotinylated alpha CT11 (biotin-alphaCT11) according to the method described in Example 20. […] Biotinylated alpha CT11 was detected and measured on LV cryosections by streptavidin Alexa647 as noted in association with FIGS. 18A-18E.

Data set [3] is classed as in vitro ADME. From the text:
Despite efficacy of these peptides being delivered as unprotected peptide formulations, particularly when devlivered topically, delievery via many routes can be impeaded by degredation inside the body. Many other biologic and small molecule therapeutics also suffer from similar degradeation issues. Indeed, most unprotected short peptides and polynucleotides (e.g. miRNAs) are rapidly degraded in body fluids in vivo, thereby limiting the interest of the pharmaceutical industry in such molecules. This consideration is particularly relevant in pathologic situations, such as the heart post-MI, where hypoxia, oxygen free radicals, and […] prompt upregulation of degradation pathways. […] Protection by being loaded inside of an engineered vesicle can reduce degredation and/or can facilitate delivery of the cargo by forming channels with connexons present in cell membranes. See e.g. FIG. 17.

In a further data set the target is T1, ZO-1 PDZ2 (Homo sapiens, UniProt Q07157).
T1 construct: the second of the three PDZ (PDZ2) domains of ZO-1; made in house; host or cells: E. coli BL21
T1 sequence (Q07157 186-264 limits assumed): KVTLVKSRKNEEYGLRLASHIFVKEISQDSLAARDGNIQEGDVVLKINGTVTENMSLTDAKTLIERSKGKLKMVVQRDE
Description: Protein thermal shift assay, ZO-1 PDZ2. It counts as binding. To be noted: 500 μg/ml protein, 25-100 μM peptide. The protocol: Thermal stability of recombinant GST-PDZ2 or Cx43 CT in the presence or absence of peptides was determined in a 96-well format. Each assay well was composed of 500 μg/ml protein, 25-100 μM of each peptide in PBS buffer, pH7.4. All assays were performed independently six times. Samples were generally prepared in 96-well plates at final volumes of 20 μL. The fluorescent dye SYPRO Orange (5000× concentrate in DMSO, ThermoFisher, S6650) was added to a final concentration of 8X. Reactions were run on QuantStudio 6 Flex Real-Time PCR system (Applied Biosystems, part of Life Technologies Corporation, CA) according to the manufacturer's recommendations using a melt protocol in 0.05-degree/see increments from 25° C. to 95° C. The Reporter Dye was “ROX” and quencher Dye and passive reference were selected as “None” for the melt curve according to manufacturer's instructions. The data were analyzed using Protein Thermal Shift™ Software v1.3 package (Applied Biosystems, CA).

The target in a further data set is T2, GST-Cx43 CT (Rattus norvegicus, UniProt P08050).
T2 construct: pGEX-6-P2 Cx43 CT amino acids 255-382; made in house; host or cells: E. coli BL21
T2 sequence (P08050 255-382): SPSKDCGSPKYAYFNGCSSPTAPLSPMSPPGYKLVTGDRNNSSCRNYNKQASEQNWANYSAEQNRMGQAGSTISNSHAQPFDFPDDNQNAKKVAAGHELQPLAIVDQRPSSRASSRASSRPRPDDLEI
Description: EDC cross-linking of kinase reaction mixtures, Cx43 CT. It is filed as binding. Conditions: 5, 10 and 25 μM. As to the method:
To characterize the interaction between the Cx43 CT substrate and peptides, the in vitro kinase assay was performed as above with modification and the constituents then subjected to a cross-linking reaction. The assay buffer used was 20 mM 3-(N-morpholino) propanesulfonic acid (MOPS), pH 7.2. All other reagents present in the kinase reaction were maintained as described above. The reaction was allowed to proceed at 37° C. for 15 minutes. Afterwards, the carbodiimide crosslinker 1-Ethyl-3-(3-dimethylaminopropyl) carbodiimide HCl (EDC) (Thermo, 22980) was added to each solution for a final concentration of 20 mM. The solution was allowed to cross-link for one hour at room temperature. The reaction was stopped by the addition of 4×LDS loading buffer, boiled for 5 minutes and subsequently separated by PAGE. The resulting gel was stained in Coomassie brilliant blue (Sigma, B0770) for two hours and destained in a solution of 4% methanol 7% acetic acid overnight. Gel bands were subsequently excised for mass spectrometric analysis. For the direct interaction between protein and peptides, PBS, pH 7.5 was used as the coupling buffer. The protein (50 μg/ml) and peptide (25 μM) were allowed to react at room temperature for one hour before EDAC was added to the reaction mixture. The reaction was Western blotted for Cx43, GST or NeutroAvidin. […]

Another data set concerns Hela cells. Description: Cellular uptake of RhodB-aCT11 peptides. Conditions: 200 to 2000 μM, 30 or 90 minutes, 37 C. It is filed as cell-based. From the text:
Cells can take up the peptide, cytoplasmic esterases will cleave the allyl groups converting the peptide to RhodB-aCT11. RhodB-aCT11-Est, or any chemically modified drug molecule designed for cell uptake using ester bonded groups or related chemical modifications, can be packaged as cargo into EVs and exported by the cell into the media. EVs loaded with cargo molecules by this method can then be isolated using standard protocols and used in the treatment and other methods detailed herein.
Monolayers of Hela cells incubated with fluorescent-tagged RhodamineB-aCT11-Est, a cell-permeant peptide with allyl groups linked by ester bonds at aspartic (D) and glutamic (E) acid residues, as well as its carboxyl terminus are shown in FIG. 34A. The cells were incubated for 30 or 90 minutes at 37 C at pH 7.4 with different concentrations of peptides between 200 and 2000 μM. […] Cellular uptake can be observed in FIG. 34A to be particularly evident following 90 minutes at higher peptide concentrations (i.e., >1000 μM). […] RhodB-aCT11-Est taken up in this manner by cells can be packaged as cargo into EVs and following isolation can these EVs be used in treatment and other methods detailed herein.

Data set [4] deals with Cx43 CT (Connexin 43 carboxyl terminus, amino acids 255 to 382) (UniProt P08050 255-382, limits assumed). Description: cell-based or functional assay.
Sequence of Cx43 CT (Connexin 43 carboxyl terminus, amino acids 255 to 382) (P08050 255-382 limits assumed): as the sequence (P08050 255-382) above

Sequence of Connexin 43 hemichannels (P17302 2-382 limits assumed): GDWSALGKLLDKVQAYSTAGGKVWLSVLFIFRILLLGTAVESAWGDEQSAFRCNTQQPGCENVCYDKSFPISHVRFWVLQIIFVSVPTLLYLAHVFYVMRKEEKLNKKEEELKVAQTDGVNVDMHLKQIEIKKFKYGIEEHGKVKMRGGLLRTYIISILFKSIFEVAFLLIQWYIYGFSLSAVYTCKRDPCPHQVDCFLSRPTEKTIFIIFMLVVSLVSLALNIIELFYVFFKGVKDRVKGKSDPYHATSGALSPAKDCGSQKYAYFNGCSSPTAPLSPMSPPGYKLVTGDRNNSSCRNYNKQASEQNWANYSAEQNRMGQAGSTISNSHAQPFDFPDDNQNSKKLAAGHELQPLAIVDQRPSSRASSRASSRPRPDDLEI

Consider `O=S(=O)(F)Cc1ccccc1` [PMSF], for which the “Calcein uptake into and retention within milk EVs” value in data set [1] is “respectively inhibited and blocked”. As for `CC1(C)[C@@H](OC(=O)CCC(=O)O)CC[C@]2(C)[C@H]3C(=O)C=C4[C@@H]5C[C@@](C)(C(=O)O)CC[C@]5(C)CC[C@@]4(C)[C@]3(C)CC[C@@H]12` [carbenoxolone], on Connexin 43 hemichannels, the “alphaCT11 uptake in presence of hemichannel blocker” value is “Dramatically lower levels of peptide uptake”. The “cytoplasmic levels of alpha CT11 in myocytes” value in data set [2] is on record as “significant reductions (p<0.05) in cytoplastic levels of alpha CT11”.

With “Gap19: Cx43 hemichannel blocker (KQIEIKKFK; Gap19; UniProt P17302 128-136, looked up, fragment)”, the “alphaCT11 uptake in presence of hemichannel blocker” value with Connexin 43 hemichannels is “Dramatically lower levels of peptide uptake”. For RPRPDDLEI [alpha CT11, RPRPDDLEI], in data set [3], the “time to degradation in blood serum” value is recorded as “about 30 minutes”.

On to “RQPKIWFPNRRKPWKK LPAARIAPR (RQPKIWFPNRRKPWKKLPAARIAPR) [M4 scram., reference compound]”, for which, in the data set with ZO-1 PDZ2, the “PDZ2 melt temperature (Tm)” value was “PDZ2 interaction incompetent”. For the same molecule, the “EDC cross-linking to Cx43 CT” value with GST-Cx43 CT is listed as “no evidence of cross-linking”. In the case of “RhodB-aCT11: fluorescently tagged RhodamineB aCT11 peptide (RPRPDDLEI) without ester bonded groups (also: RhodamineB label, site not given here)”, the figures for the cellular uptake result in the data set with Hela cells and in the data set on Hela cells (listed as RhodamineB aCT11) were “little evidence for uptake of RhodB-aCT11 is observed” and “does not indicate cellular uptake”, respectively.

On to RQPKIWFPNRRKPWKKRPRPDDLEI (not fully specified) [alpha CT1], for which, in data set [4], the “Cx43 S368 phosphorylation (PKC-ε kinase assay, blots of pS368 over total Cx43)” value was roughly 3 fold.
